Reference: IntAct's records for PubMed 25170080

B1: Protein Nef (Human immunodeficiency virus type 1 group M subtype B (isolate HXB2) (HIV-1)), P04601 (parent)
chain: MGGKWSKSSVIGWPTVRERMRRAEPAADRVGAASRDLEKHGAITSSNTAATNAACAWLEAQEEEEVGFPVTPQVPLRPMTYKAAVDLSHFLKEKGGLEGLIHSQRRQDILDLWIYHTQGYFPDWQNYTPGPGVRYPLTFGWCYKLVPVEPDKIEEANKGENTSLLHPVSLHGMDDPEREVLEWRFDSRLAFHHVARELHPEYFKNC
partner: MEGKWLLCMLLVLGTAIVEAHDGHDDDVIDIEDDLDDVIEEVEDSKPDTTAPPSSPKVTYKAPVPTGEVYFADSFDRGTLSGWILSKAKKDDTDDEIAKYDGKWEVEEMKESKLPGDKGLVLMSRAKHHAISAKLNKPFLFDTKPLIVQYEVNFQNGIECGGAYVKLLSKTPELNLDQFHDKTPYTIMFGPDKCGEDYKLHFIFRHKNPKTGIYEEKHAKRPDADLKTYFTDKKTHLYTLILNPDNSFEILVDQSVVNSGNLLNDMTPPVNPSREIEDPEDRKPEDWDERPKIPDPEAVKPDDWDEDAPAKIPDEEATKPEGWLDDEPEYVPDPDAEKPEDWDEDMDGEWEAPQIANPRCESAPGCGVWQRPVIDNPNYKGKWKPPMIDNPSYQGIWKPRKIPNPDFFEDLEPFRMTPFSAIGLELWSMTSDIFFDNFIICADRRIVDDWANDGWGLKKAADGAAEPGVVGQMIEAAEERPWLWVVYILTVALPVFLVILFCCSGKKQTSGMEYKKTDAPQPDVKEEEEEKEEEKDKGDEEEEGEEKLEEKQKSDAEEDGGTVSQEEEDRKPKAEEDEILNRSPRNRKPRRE

Variants of: B1
Details: with calx_human CANX

Variant	effect of a mutation on the interaction
G2A	disrupting interaction strength
